These results are taken from the nanobody polyreactivity screen of Harvey et al. (2022).

The data set can be described thus: yeast display, Sf9 membrane polyspecificity reagent, FACS + sequencing; frameworks hold sequencing errors. A digest of the protocol: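 A synthetic nanobody library was expressed on Saccharomyces cerevisiae BJ5465 by galactose induction for 36–48 hours. The library was stained for 1 hour at 4 °C with 10% biotinylated, detergent-solubilized Sf9 membrane reagent and enriched with streptavidin microbeads before FACS. Low and high (top ~1%) gates were set on anti-HA fluorescence for expression and streptavidin fluorescence for reagent binding, and each polyreactivity label reflects the gate of origin.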
As for “QVQLVESGGGLVQAGGSLRLSCAASGYTFQYNDMGWYRQAPGKERELVAGISIGGSTNYADSVKGRFTISRDNAKNTVYLQMNSLKPEDTAVYYCAARTLWFPGTTSTSVGYKYGYWGQGTQVTVSS”, the “polyreactivity (PSR sort gate)” value was “low polyreactivity”.
For the sequence “QVQLVESGGGLVQAGGSLRLSCAASGYTFRAYVMGWYRQAPGKERELVAGITRRGGTTYYADSVKGRFTISRDNAKNTVYLQMNSLKTEDTAVYYCNAVYRSGSIPYDSWGQGTQVTVSS”, the “polyreactivity (PSR sort gate)” value is listed as “high polyreactivity”.
As to “QVQLVESGGGLVQAGGSLRLSCAASGYTFRFNAMGWYRQAPGKEREFVAAIDFGGAGTYYADSVKGRFTISRDNAKNTVYLQMNSLKPEVTAVYYCNARDGVTTEFDYWGQGTQVTVSS”, the “polyreactivity (PSR sort gate)” value is on record as “low polyreactivity”.
Turning to “QVQLVESGGGLVQAGGSLRLSCAASGYTFRHYAMGWYRQAPGKERELVAAISRSGGRTYYADSVKGRFTISRDNAKNTVYLHMNSLKPEDTAVYYCAADRVFGSSYLSGFDYWGQGTQGTVSS”, the “polyreactivity (PSR sort gate)” value is reported as “low polyreactivity”.
For the sequence “QVQLVESGGGLVQAGGSLRLSCAASGYTFRSYAMGWYRQAPGKEWEFVASISSSGGSTYYADSVKGRFTISRDNAKNTVYLQMNSLKPEDTAVYYCAASVVSYPYDEYDYWGQGTQVTVSS”, the “polyreactivity (PSR sort gate)” value is “low polyreactivity”.
As for “QVQLVESGGGLVQAGGSLRLSCAASGYTFRTNVMGWYRPAPGKVWELVATINWRGGSTYYADSVKGRFTISRDNAKNTVYLQMNSLKPEDTAVYYCAKSYRYYRTMDYWGQGTQVTVSS”, the “polyreactivity (PSR sort gate)” value is given as “low polyreactivity”.
Turning to “QVQLVESGGGLVQAGGSLRLSCAASGYTFRYAMGWYRQAPGKERELVAAISSRGSSTYYADSVKGRFTISRDNAKNTVYLQMNSLKPEDTAVYYCAAKHFVKGDYWGQGTQVTVSS”, the “polyreactivity (PSR sort gate)” value was “high polyreactivity”.
“QVQLVESGGGLVQAGGSLRLSCAASGYTFRYYAMGWYRQAPGKERELVAAISSGGSTYYADSVKGRFTISRDNAKNTVYLQMNSLKPEDTAVYYCATGPRIRYDYWGQGTQVTVSS”: the “polyreactivity (PSR sort gate)” value is “high polyreactivity”.
For “QVQLVESGGGLVQAGGSLRLSCAASGYTFRYYGMGWYRQAPGKERELVADINSNGVRTYYADSVKGRFTISRDNAKNTVYLQMNSLKPEDTAVYYCNKDWGRYRYDYWGQGTQVNVSS”, the “polyreactivity (PSR sort gate)” value is “high polyreactivity”.
Turning to “QVQLVESGGGLVQAGGSLRLSCAASGYTFRYYVMGWYRQAPGKERELVATISRGGRTNYADSVKGRFTISRDNAKNTVYLQMNSLKPEDTAVYYCNADWSRVPYRYDYWGQGTQVTVSS”, the “polyreactivity (PSR sort gate)” value is given as “high polyreactivity”.
The value for “QVQLVESGGGLVQAGGSLRLSCAASGYTFSANADMGWYRQAPGKESELVAAITGSGGITYYADSVKGRFTISRDNAKNTVYLQMNSLKPEDTAVYYCAAAVVDAAFDYWGQGTQVTVSS” was “low polyreactivity”; that for “QVQLVESGGGLVQAGGSLRLSCAASGYTFSFYAMGWYRQATGKERELVAAISRSGGSTYYADSVKGRFTISRDNAKNTVYLQMNSLKPEDTAVYYCAARWPGAYHEYGYWGQGTQVTVSS” was “high polyreactivity”.
With “QVQLVESGGGLVQAGGSLRLSCAASGYTFSGYAMGWYRQAPGKERELVAAITSSGGTTYYADSVKGRFTISRDNAKNTVYLQMNSLKPEDTAVYYCNAYYSHYGDTEDYYWGQGTQVTVSS” the entry was “high polyreactivity”.
In the case of “QVQLVESGGGLVQAGGSLRLSCAASGYTFSRNAMGWYRQAPGKERELVAAITGSGGSTYYADSVKGRFTISRDNAKNTVYLQMNSLKPEDTAVYYCATEVKRGYVGFDYWGQGTQVTVSS”, the “polyreactivity (PSR sort gate)” value is recorded as “low polyreactivity”.
For “QVQLVESGGGLVQAGGSLRLSCAASGYTFSWYAMGWYRQAPGKERELVAGIDTSGGSTYYADSVKGRFTISRDNAKNTVYLQMNSLKPEDTAVYYCAAGLLWYSWGFWYYEYGYWGQGTQVTVSS”, the “polyreactivity (PSR sort gate)” value is “low polyreactivity”.
On to “QVQLVESGGGLVQAGGSLRLSCAASGYTFTHNAIGWYRQAPGKERELVATIRNSGSRTYYADSVKGRFTISRDNGKNTVYLQMNSLKPEDTAVYYCAARLLYRHFGYWGQGTQVTVSS”, for which the “polyreactivity (PSR sort gate)” value is given as “high polyreactivity”.
